Substrate in data set [1]: O=C(O)c1ccccc1-c1c2ccc(=O)c([As]3SCCS3)c-2oc2c([As]3SCCS3)c(O)ccc12
The data set can be described thus: Activity at Lyp expressed in Escherichia coli using DADEpYLIPQQG as a substrate […].

Substrate in data set [2]: O=C(O)c1ccccc1-c1c2ccc(=O)c([As]3SCCS3)c-2oc2c([As]3SCCS3)c(O)ccc12
Nature of the data set: Activity at Lyp expressed in Escherichia coli using pNPP as a substrate […].

B1: Tyrosine-protein phosphatase non-receptor type 22 (Homo sapiens), Q9Y2R2 (protein)
chain: MDQREILQKFLDEAQSKKITKEEFANEFLKLKRQSTKYKADKTYPTTVAEKPKNIKKNRYKDILPYDYSRVELSLITSDEDSSYINANFIKGVYGPKAYIATQGPLSTTLLDFWRMIWEYSVLIIVMACMEYEMGKKKCERYWAEPGEMQLEFGPFSVSCEAEKRKSDYIIRTLKVKFNSETRTIYQFHYKNWPDHDVPSSIDPILELIWDVRCYQEDDSVPICIHCSAGCGRTGVICAIDYTWMLLKDGIIPENFSVFSLIREMRTQRPSLVQTQEQYELVYNAVLELFKRQMDVIRDKHSGTESQAKHCIPEKNHTLQADSYSPNLPKSTTKAAKMMNQQRTKMEIKESSSFDFRTSEISAKEELVLHPAKSSTSFDFLELNYSFDKNADTTMKWQTKAFPIVGEPLQKHQSLDLGSLLFEGCSNSKPVNAAGRYFNSKVPITRTKSTPFELIQQRETKEVDSKENFSYLESQPHDSCFVEMQAQKVMHVSSAELNYSLPYDSKHQIRNASNVKHHDSSALGVYSYIPLVENPYFSSWPPSGTSSKMSLDLPEKQDGTVFPSSLLPTSSTSLFSYYNSHDSLSLNSPTNISSLLNQESAVLATAPRIDDEIPPPLPVRTPESFIVVEEAGEFSPNVPKSLSSAVKVKIGTSLEWGGTSEPKKFDDSVILRPSKSVKLRSPKSELHQDRSSPPPPLPERTLESFFLADEDCMQAQSIETYSTSYPDTMENSTSSKQTLKTPGKSFTRSKSLKILRNMKKSICNSCPPNKPAESVQSNNSSSFLNFGFANRFSKPKGPRNPPPTWNI
B1: the kcat – broadly, the maximal rate divided by the concentration of active sites – in data set [1] was 3.84 s⁻¹; in data set [2], 0.49 s⁻¹.

These data come from ChEMBL document CHEMBL1177690, “Target-specific control of lymphoid-specific protein tyrosine phosphatase (Lyp) activity” (Bioorg Med Chem, 2010).
